Experiments:
M21 subunit = test: Far Western blotting: interaction with the M21 subunit; assay type: binding, chicken; settings: probe 0.2 μg/ml
Protocol: A) PP1M 5 μg (track 1), 10 μg bacterial extract containing M110-(R714-I1004) (track 2), MBP-M110-(R714-I004) 1 μg (track 3), MBP-M110-(R714-L934) 1 μg (track 4), MBP-M110-(K933-I1004) 1 μg (track 5), MBP 1 μg (track 6), M110-(M1-E309) 2 μg (lane 7) and M110-(M1-S477) 2 μg (track 8) were run on a 12% SDS/polyacrylamide gel and stained with Coomassie Blue. B) same as A) except that 10-fold less protein was electrophoresed and after transfer to nitrocellulose the proteins were probed with digoxigenin-labelled M21 subunit (0.2 μg/ml). C) same as B) except that, after electrophoresis, the proteins were transferred to nitrocellulose and probed with digoxigenin-labelled M21-(M1-L146) (0.2 μg/ml).
A) GST-M21 5 μg (track 1), M21 5 μg (track 2), M21-(M1-L146) 5 μg (track 3), M21-(M1-E110) 20 μg (track 4) and M21-(E110-K186) 5 μg (track 5) were run on 16.5% polyacrylamide gels and stained with Coomassie Blue. The marker proteins ovalbumin (43 kDa) and carbonic anhydrase (29 kDa) are indicated. B) GST-M21 0.5 μg (track 1), M21 0.5 μg (track 2), M21-M1-L146) 0.5 μg (track 3), M21-(M1-E110) 5 μg (track 4) and M21-(E110-K186) 5 μg (track 5) were electrophoresed as in A) and after transfer to nitrocellulose the blots were probed with digoxigenin-labelled MBP-M110-(K933-I1004) (0.2 μg/Ml). C) same as B) except that, after electrophoresis, the proteins were transferred to nitrocellulose and probed with digoxigenin-labelled M21 subunit (0.2 μg/ml).
PP1M (0.5 μAg) was electrophoresed on a 12% SDS/polyacrylamide gel, transferred to nitrocellulose and probed with digoxigenin-labelled M21 subunit (0.2 μg/ml) (track 1) or digoxigenin-labelled M21-(M1-L146) (0.2 μg/ml) (track 2). The positions of the M110 subunit, the M21 subunit and PP1c are marked.
Proteins were labelled with digoxigenin and Far Western analyses carried out as described, except that the digoxigenin-labelled probe was used at a concentration of 0.2 μg/ml instead of 2 μg/ml. SDS/polyacrylamide gel electrophoresis was carried out on 7.5-15% gels according to Laemmli and on 16.5% gels according to Schagger and von Jagow. Protein was estimated according to Bradford.

myosin = molecular target: T1, myosin (Gallus gallus, UniProt P10587); test: Myosin binding assay (pelleting with myosin); parameters: species or system chicken; settings: myosin 1 μM, 15 min 0° C.
T1 construct: from tissue; host or cells: chicken gizzard
Protocol: The PP1 catalytic subunit (PP1c), PP1M, or PP1M lacking the M21 subunit, PP1M(ΔM21), each at 30 nM, were incubated for 15 min at 0° C. with 1 μM myosin and centrifuged (see Methods of Example 3). […] The results shown are the average (±S.E.M.) for three separate experiments each assayed in duplicate.
(A); PP1M, M110-(M1-S477) and GST-M110-(M377-K976), each at 30 nM were incubated for 15 min at 0° C. with 1 μM myosin and centrifuged. The supernatants (S), resuspended pellets (P) and the suspension before centrifugation (T, total) were electrophoresed on 12% SDS/polyacrylamide gels, transferred to nitrocellulose and immunoblotted with antibodies raised against the PP1M holoenzyme. No protein was pelleted in the absence of myosin (not shown). The positions of the marker proteins myosin heavy chain (200 kDa), glycogen phosphorylase (97 kDa), bovine serum albumin (66 kDa), ovalbumin (43 kDa), carbonic anhydrase (29 kDa) and soybean trypsin inhibitor (20 kDa) are indicated. (B) The experiments were carried out as in (A), except that the M110 fragments and M21 subunit were used at 100 nM, the 8.5 kDa M110-(K933-I1004) fragment was electrophoresed on a 16.5% polyacrylamide gel and immunoblotting was carried out with affinity purified antibodies (see Methods). A small amount of M110-(R714-I1004) pelleted in the absence of myosin. […] No other protein was pelleted in the absence of myosin.
(A); Myosin (1 μM) was mixed with 50 μM, 20 μM or 10 μM M21 subunit to give the molar ratios M21:myosin dimer indicated. After 15 min at 0° C., the solutions were centrifuged and the supernatants (S), resuspended pellets (P) and the suspension before centrifugation (T, total) were electrophoresed on 12% SDS/polyacrylamide gels and stained with Coomassie blue. The positions of the myosin heavy chain (MHC) and the M21 subunit are indicated. The myosin light chains migrate faster than the M21 subunit and are not visible at these loadings.
Myosin binding assays. Myosin (0.5 mg/ml, 1 μM in terms of myosin heavy chains) in 10 mM Hepes pH 7.5, 50 mM KCl, 5 mM MgCl2, 0.1% (by vol) 2-mercaptoethanol, was mixed with PP1M, M21 subunit, or fragments of the M110 and M21 subunits, at the concentrations indicated in figure legends. After incubation for 15 min at 0° C., the solutions were centrifuged for 2 min at 13,000×g, the supernatants removed, and the pellets washed twice in 10 mM Hepes pH 7.5, 50 mM KCl, 5 mM MgCl2, 0.1% (by vol) 2-mercaptoethanol before resuspension in 50 mM Tris-HCl pH 7.5, 0.1 mM EGTA, 0.03% (by mass) Brij 35, 0.6 M NaCl, 0.1% (by vol) 2-mercaptoethanol. Aliquots of the supernatant, the resuspended pellet and the suspension before centrifugation were either assayed for myosin P-light chain phosphatase activity or denatured in SDS and analysed by SDS/polyacrylamide gel electrophoresis.

T1 sequence (P10587 whole entry): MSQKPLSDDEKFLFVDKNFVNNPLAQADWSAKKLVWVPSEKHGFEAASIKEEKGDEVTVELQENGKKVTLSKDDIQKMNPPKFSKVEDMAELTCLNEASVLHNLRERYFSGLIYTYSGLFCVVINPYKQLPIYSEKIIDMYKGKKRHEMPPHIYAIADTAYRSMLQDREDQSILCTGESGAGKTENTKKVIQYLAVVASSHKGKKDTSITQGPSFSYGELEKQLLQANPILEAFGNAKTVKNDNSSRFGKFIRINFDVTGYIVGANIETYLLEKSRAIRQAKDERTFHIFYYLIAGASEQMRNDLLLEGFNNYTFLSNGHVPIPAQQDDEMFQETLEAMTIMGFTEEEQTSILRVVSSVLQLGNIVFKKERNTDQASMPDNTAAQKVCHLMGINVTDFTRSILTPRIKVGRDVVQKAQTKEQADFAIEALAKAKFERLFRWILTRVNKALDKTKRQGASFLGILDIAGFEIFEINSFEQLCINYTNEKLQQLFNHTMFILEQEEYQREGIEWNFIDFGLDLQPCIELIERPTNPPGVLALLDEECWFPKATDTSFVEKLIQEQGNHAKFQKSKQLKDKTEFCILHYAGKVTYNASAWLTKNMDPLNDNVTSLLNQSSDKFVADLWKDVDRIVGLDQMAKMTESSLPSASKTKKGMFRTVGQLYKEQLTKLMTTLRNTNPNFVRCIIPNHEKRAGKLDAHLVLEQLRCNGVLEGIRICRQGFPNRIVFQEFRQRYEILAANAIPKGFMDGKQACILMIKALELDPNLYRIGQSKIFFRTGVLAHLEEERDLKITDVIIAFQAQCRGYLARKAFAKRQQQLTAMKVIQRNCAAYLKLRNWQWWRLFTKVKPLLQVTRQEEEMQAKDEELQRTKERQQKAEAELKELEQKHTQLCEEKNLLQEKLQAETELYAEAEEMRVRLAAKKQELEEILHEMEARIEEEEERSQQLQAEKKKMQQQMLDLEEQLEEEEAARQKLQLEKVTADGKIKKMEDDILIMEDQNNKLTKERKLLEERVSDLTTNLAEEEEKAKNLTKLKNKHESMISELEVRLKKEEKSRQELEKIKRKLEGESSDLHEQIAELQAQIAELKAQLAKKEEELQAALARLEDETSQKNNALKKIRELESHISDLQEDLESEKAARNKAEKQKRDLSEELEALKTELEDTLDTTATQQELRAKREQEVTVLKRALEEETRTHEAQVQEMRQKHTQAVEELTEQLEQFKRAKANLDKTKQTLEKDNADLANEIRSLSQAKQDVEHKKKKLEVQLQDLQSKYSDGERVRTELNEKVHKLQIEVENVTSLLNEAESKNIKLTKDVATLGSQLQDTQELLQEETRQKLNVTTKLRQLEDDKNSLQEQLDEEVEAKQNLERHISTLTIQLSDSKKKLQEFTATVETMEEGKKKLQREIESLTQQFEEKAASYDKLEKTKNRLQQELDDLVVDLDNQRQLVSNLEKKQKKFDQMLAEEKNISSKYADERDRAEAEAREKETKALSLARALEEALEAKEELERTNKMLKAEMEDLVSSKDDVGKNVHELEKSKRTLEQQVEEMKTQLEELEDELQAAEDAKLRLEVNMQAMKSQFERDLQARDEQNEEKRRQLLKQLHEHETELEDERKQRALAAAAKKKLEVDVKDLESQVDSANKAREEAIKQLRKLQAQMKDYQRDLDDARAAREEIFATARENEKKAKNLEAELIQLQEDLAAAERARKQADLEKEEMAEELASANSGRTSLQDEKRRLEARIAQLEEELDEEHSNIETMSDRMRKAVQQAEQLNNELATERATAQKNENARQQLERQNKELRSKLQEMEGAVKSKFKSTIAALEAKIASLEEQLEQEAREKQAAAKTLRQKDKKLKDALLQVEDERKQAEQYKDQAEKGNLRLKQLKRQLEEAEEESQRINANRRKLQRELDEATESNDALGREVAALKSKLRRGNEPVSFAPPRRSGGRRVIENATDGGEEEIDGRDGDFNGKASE
T1 sequence (P02612 whole entry partner): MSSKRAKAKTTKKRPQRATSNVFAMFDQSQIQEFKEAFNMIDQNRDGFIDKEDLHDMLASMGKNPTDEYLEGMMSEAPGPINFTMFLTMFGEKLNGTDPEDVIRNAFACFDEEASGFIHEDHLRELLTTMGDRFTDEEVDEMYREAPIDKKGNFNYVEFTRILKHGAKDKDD
T1 sequence (P02607 whole entry partner): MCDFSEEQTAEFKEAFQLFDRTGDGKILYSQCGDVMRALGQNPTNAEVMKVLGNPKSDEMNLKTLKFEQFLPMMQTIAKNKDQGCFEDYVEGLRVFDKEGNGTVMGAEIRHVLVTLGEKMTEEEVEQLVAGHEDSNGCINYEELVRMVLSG

binding to myosin (myosin) | Molecule | recognised by digoxigenin-labelled M21 subunit in Far Western blotting (M21 subunit)
bound to myosin | M110-(R714-I1004): C-terminal 291 residues of the chicken gizzard M110 subunit (protein) RSTRTREQENEEKEKEEKEKQDKEKQEEKKESETKDDDYRQRYSRTVEEPYHRYRPTSTSTSTSSTSSLSTSTSSLSSSSQLNRPNSLIGITSAYSRSGTKESEREGGKKEEEKEEDKSQPKSIRERRRPREKRRSTGVSFWTQDSDENEQEHQSDSEEGTNKKETQSDSLSRYDTGSLSVSSGDRYDSAQGRSGSQSYLEDRKPYCSRLEKEDSTDFKKLYEQILAENEKLKAQLHDTNMELTDLKLQLEKTTQRQERFADRSLLEMEKRVSGKSQYLLGGKKSSRKKDI | recognised
bound quantitatively to myosin | complex between GST-M21 and M110-(R714-I1004): complex purified on glutathione-Sepharose from GST-M21 mixed with bacterial extract expressing M110-(R714-I1004) (protein, left off: a dimerising Fc or GST; small tags and cut ends) GST-M21 (M21 part): MSSLFTRSKEYTRSRKSQSDSPPSSPSPIAKTLRHERLSRLEAATTPATSDSYSDRASSRSSAYSRRENRLAALSSRAEEESNRDYKKLYESALSENQKLKSKLQEAQLELADIKSKLEKAAQQKHEKTSDRSSMLEMEKREKRALERKLSEMEEEMKILTELKSDNQRLKDENGALIRVISKLSK M110-(R714-I1004): RSTRTREQENEEKEKEEKEKQDKEKQEEKKESETKDDDYRQRYSRTVEEPYHRYRPTSTSTSTSSTSSLSTSTSSLSSSSQLNRPNSLIGITSAYSRSGTKESEREGGKKEEEKEEDKSQPKSIRERRRPREKRRSTGVSFWTQDSDENEQEHQSDSEEGTNKKETQSDSLSRYDTGSLSVSSGDRYDSAQGRSGSQSYLEDRKPYCSRLEKEDSTDFKKLYEQILAENEKLKAQLHDTNMELTDLKLQLEKTTQRQERFADRSLLEMEKRVSGKSQYLLGGKKSSRKKDI | –
did not bind to myosin | M110-(K933-I1004): C-terminal 72 residues of the chicken gizzard M110 subunit (protein, UniProt Q90623 933-1004, looked up, fragment) KLYEQILAENEKLKAQLHDTNMELTDLKLQLEKTTQRQERFADRSLLEMEKRVSGKSQYLLGGKKSSRKKDI | recognised
did not bind to myosin | M110-(M1-S477): rat aorta M110 fragment, residues 1-477, GST tag removed (protein, UniProt Q10728 1-477, looked up, fragment) MKMADAKQKRNEQLKRWIGSETDLEPPVVKRQKTKVKFDDGAVFLAACSSGDTDEVLKLLHRGADINYANVDGLTALHQACIDDNVDMVKFLVENGANINQPDNEGWIPLHAAASCGYLDIAEFLIGQGAHVGAVNSEGDTPLDIAEEEAMEELLQNEVNRQGVDIEAARKEEERIMLRDARQWLNSGHISDVRHAKSGGTALHVAAAKGYTEVLKLLIQAGYDVNIKDYDGWTPLHAAAHWGKEEACRILVDNLCDMETVNKVGQTAFDVADEDILGYLEELQKKQNLLHSEKRDKKSPLIESTANMENNQPQKTFKNKETLIIEPEKNASRIESLEQEKADEEEEGKKDESSCSSEEDEEDDSESEAETDKTKPMASVTNAHTASTQAAPAAVTTPTLSSNQGTPTSPVKKFPTSTTKISPKEEERKDESPASWRLGLRKTGSYGALAEITASKEAQKEKDTAGVIRSASSPRLS | not
